The results in this text go back to patent US9125896B2.

For test [1], the target named is human epidermal growth factor receptor (EGFR) (human) (UniProt P00533).
The target is the same in test [2]. This is another data set of the same source.
Test [3] shares this target. This is another data set of the same source.

B1: muEGFR-6 (antibody, V domains shown)
VH: QVQLQQSGAELARPGASVKLSCKASGYTFTSYWMQWVKQRPGQGLECIGALYPGDGDARYTQKFKGKATLTADRSSSTAYMQLSSLASEDSAVYYCARYDAPGYAMDYWGQGTSVTVAS
VL: DIQMTQSPSSLSASLGGKVTITCKASQDINNYIAWYQHKPGKGPRLLIHYTSTLHPGIPSRFSGSGSGRDYSFSISNLEPEDIATYYCLQYDNLLYTFGGGTKLEIKR
In the case of B1, in test [1], the EC50 (nM), inhibition of basal proliferation of NCI-H292 cells (WST-8, 5 days) turned out to be 5.6 nM and the Maximal inhibition (%) of basal proliferation of NCI-H292 cells worked out at 65%. Moreover, the EC50 (nM), H292 tumor cell growth inhibition (Example 11, WST-8) in test [2] was determined as 2.59 nM. In test [3], this molecule yielded an EC50 (nM), inhibition of basal proliferation of HCC827 cells (WST-8, 5 days) of 0.3 nM and a Maximal inhibition (%) of basal proliferation of HCC827 cells of 72%.

B2: muEGFR-7 (antibody, V domains shown)
VH: QVQLQQSGAELARPGASVKLSCKASGYTFTSYWMQWVKQRPGQGLECIGTIYPGDGDTTYTQKFKGKATLTADKSSSTAYMQLSSLASEDSAVYYCARYDAPGYAMDYWGQGTSVTVSS
VL: DIQMTQSPSSLSASLGGKVTITCKASQDINNYLAWYQHKPGKGPRLLIHYTSTLHPGIPSRFSGSGSGRDYSFSISNLEPEDIATYYCLQYDNLLYTFGGGTKLEIKR
For the molecule B2, in test [1], the EC50 (nM), inhibition of basal proliferation of NCI-H292 cells (WST-8, 5 days) amounted to 0.4 nM and the Maximal inhibition (%) of basal proliferation of NCI-H292 cells stood at 77%. In addition, in test [2], the EC50 (nM), H292 tumor cell growth inhibition (Example 11, WST-8) stood at 0.21 nM. In addition, in test [3], the EC50 (nM), inhibition of basal proliferation of HCC827 cells (WST-8, 5 days) amounted to 0.03 nM and the Maximal inhibition (%) of basal proliferation of HCC827 cells is 72%.
